Test system: MS2 coat protein
Assay: apparent KD of MS2 coat protein; designed switch direction (-1 OFF switch, 1 ON switch): 1; higher = weaker reporter binding
Procedure, shortened: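 The apparent KD reported per design is the median over clusters of curve fits to normalised cluster fluorescence. The RNA switches were transcribed on Illumina chips by stalled E. coli RNA polymerase. SNAP-549-labelled MS2 coat protein was titrated from 0.7 or 1.5 nM, doubling up to 3 µM, in Tris-HCl pH 7.5 buffer containing KCl, MgCl2, BSA, DTT, tRNA and Tween-20, with no input, 200 uM small-molecule ligand, or an oligonucleotide input.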

[1] = input ligand: microRNA oligo, concentration not stated
[2] = Eterna round: R95, input ligand: FMN 200 uM
[3] = Eterna round: R95, input ligand: microRNA oligo, concentration not stated
[4] = Eterna round: R95, input ligand: none

## UGUUGUAUUACAGGAUAUCUAGUAUGUUUAUUUAGAGAAGGGUAUUCACAUGAGGAUCACCCAUGUAUAUACGAGGAAGUUGUG [JMF's solution 38] (Eterna round: R96, puzzle: Same State NG 1)
[1]
  apparent KD of MS2 coat protein: 30.8 nM

## GGAAUGUGAUGUUACAUGAGGAUCACCCAUGUAGUGACAACUAAGGAUAUCUGAAAGGAAGGAGAGGAGAAGGUAGGAUCACAA [AK SSNG3-V2-16] (Eterna round: R96, puzzle: Same State NG 3)
Input ligand: FMN 200 uM
  apparent KD of MS2 coat protein: 15.2 nM
[1]
  apparent KD of MS2 coat protein: 24.1 nM
Input ligand: none
  apparent KD of MS2 coat protein: 40.8 nM

## AUUAUUAAUAUAGGAUAUGUAAAACAUGAGGAUCACCCAUGUGAUAUCGUGAGUAAGGAGAGAGAACAGAAGGAUAAUUUUUUU [JMF's solution 1] (Eterna round: R96, puzzle: Same State NG 2)
Input ligand: FMN 200 uM
  apparent KD of MS2 coat protein: 38.1 nM
[1]
  apparent KD of MS2 coat protein: 30.9 nM
Input ligand: none
  apparent KD of MS2 coat protein: 41.3 nM

## AUACAUGAGGAUCACCCAUGUAAUUAAUUAAUUAAUAAGAUCUAGGAUAUCAGCUCGUUUAGAGCUGAGAAGGAGAUCACAUGU [SSNG3/21-B3] (Eterna round: R96, puzzle: Same State NG 3)
[1]
  apparent KD of MS2 coat protein: 19.8 nM

## AGAUCAUGACGAGGAUAUGGUACAUGAGGAUCACCCAUGUAUGUACCACGACGGAAACGUCGAAUCCAGAAGGCGUCGUGAUCA [Mat - Same State NG 2 - JL mod - D23] (Eterna round: R96, puzzle: Same State NG 2)
Input ligand: FMN 200 uM
  apparent KD of MS2 coat protein: 47.5 nM
[1]
  apparent KD of MS2 coat protein: 100 nM
Input ligand: none
  apparent KD of MS2 coat protein: 127 nM

## GGAGCCGGCACCGAGGAUAUUCAUAUUAAAACAUGAGGAUCACCCAUGUAGGCCAGAAGGCCUUGGGAGAAGGCGGAUCGGCUCA [Xeonanis - 6] (puzzle: Same State 2)
[2]
  apparent KD of MS2 coat protein: 29.5 nM
[3]
  apparent KD of MS2 coat protein: 376 nM
[4]
  apparent KD of MS2 coat protein: 491 nM

## AUUAAUAAUCUAGGAUAUCACGUCGUUUAGACGUGAGAAGGAGAUCAUAACAUGAGGAUCACCCAUGUAUUACAUGAAGUUAAU [SSNG1/7-B3] (Eterna round: R96, puzzle: Same State NG 1)
Input ligand: FMN 200 uM
  apparent KD of MS2 coat protein: 22.2 nM
[1]
  apparent KD of MS2 coat protein: 27.8 nM
Input ligand: none
  apparent KD of MS2 coat protein: 37.5 nM

## CUAUCUACAGGUUGCAGUGCUCGUCUUAUACAUGAGGAUCACCCAUGUUAUAGCCCGGUGCUUGCGCUGGGCUGAUU [JL ViennaUCT Tearor mod 2] (puzzle: Sensor for hsa-mir-208a)
[2]
  apparent KD of MS2 coat protein: 36.4 nM
[3]
  apparent KD of MS2 coat protein: 16.4 nM
[4]
  apparent KD of MS2 coat protein: 43 nM

## CUGAAAUGUCAAGGAUAUCACGUCGAUUAGACGUGAGAAGGUGAUCUGCACAUGAGGAUCACCCAUGUGUUACAUGGGAGUCAG [Brourd's SSNG1/1-A2 mod 16] (Eterna round: R96, puzzle: Same State NG 1)
Input ligand: FMN 200 uM
  apparent KD of MS2 coat protein: 600 nM
[1]
  apparent KD of MS2 coat protein: 324 nM
Input ligand: none
  apparent KD of MS2 coat protein: 891 nM

## GACCGCGAGGAAGGAUAUGGAGCCUUAUUGGCUCCAGAAGGUCCAUAAAGGACAUGAGGAUCACCCAUGUGGGUUGAAGCGGUC [Fiskers NG1ss - 38] (Eterna round: R96, puzzle: Same State NG 1)
Input ligand: FMN 200 uM
  apparent KD of MS2 coat protein: 24.6 nM
[1]
  apparent KD of MS2 coat protein: 125 nM
Input ligand: none
  apparent KD of MS2 coat protein: 173 nM

## AAGUAACAUGAGGAUCACCCAUGUGAGGUGAGCGUAGGAUAUCGAGAAGGAAGGGUGGAGCGAGAAGGACGAAGGA [JR_SS1_Sub0102] (puzzle: Same State 1)
[2]
  apparent KD of MS2 coat protein: 349 nM
[3]
  apparent KD of MS2 coat protein: 192 nM
[4]
  apparent KD of MS2 coat protein: 501 nM

## UGUACCUGCACAGGAUAUCAUGCGAAAAUUGCGUGAGAAGGGUGAAUACUGUCUUUCUAAGAGUACAUGAGGAUCACCCAUGUA [SameState NG1 #61] (Eterna round: R96, puzzle: Same State NG 1)
Input ligand: FMN 200 uM
  apparent KD of MS2 coat protein: 156 nM
[1]
  apparent KD of MS2 coat protein: 91.8 nM
Input ligand: none
  apparent KD of MS2 coat protein: 119 nM

## GGAAUAUGAUGUUACAUGAGGAUCACCCAUGUAGUGAUAACUAAGGAUAUUUGAAAGGGAGGAGAAGAGAAGGUAGGAUCAUAA [AK SSNG3-V2-11.1] (Eterna round: R96, puzzle: Same State NG 3)
Input ligand: FMN 200 uM
  apparent KD of MS2 coat protein: 60.7 nM
[1]
  apparent KD of MS2 coat protein: 47.6 nM
Input ligand: none
  apparent KD of MS2 coat protein: 63.7 nM

## UGCUAGUGGGUAGGAUAUCUAGGAUAUGGGAAAGACUAAGUCUGUAGGUCACCUAACCCAGAAGGAGAGAAGGACCAUUCAGCU [pwkr ssNG2 2FMN + F9.26] (Eterna round: R96, puzzle: Same State NG 2)
Input ligand: FMN 200 uM
  apparent KD of MS2 coat protein: 165 nM
[1]
  apparent KD of MS2 coat protein: 22.5 nM
Input ligand: none
  apparent KD of MS2 coat protein: 38 nM

## ACCCAAAGUAUAUGGGAACAAGCUUUUUAACAUGAGGAUCACCCAUGUACUCGUCUUGUAAGCAGUCGAAAGACUGC [Sensor 100 - 1] (puzzle: Sensor for hsa-mir-208a)
[2]
  apparent KD of MS2 coat protein: 312 nM
[3]
  apparent KD of MS2 coat protein: 17.4 nM
[4]
  apparent KD of MS2 coat protein: 368 nM

## AAAAAACAUGAGGAUCACCCAUGUCAAAAGACAUGAGGAUAUGUACAGACUUCGGUCUGUACAGAAGGCAUGUAAA [SS1 - 1015] (Eterna round: R96, puzzle: Same State 1)
Input ligand: FMN 200 uM
  apparent KD of MS2 coat protein: 28.9 nM
[1]
  apparent KD of MS2 coat protein: 241 nM
Input ligand: none
  apparent KD of MS2 coat protein: 319 nM

## GGUCGGAACCACAUGAGGAUCACCCAUGUUCCGGAAACGGUACAGGAUAUCUGUCCGAAAAGGUCAGAGAAGGGUGAACCGACC [Fiskers NG3ss - 77] (Eterna round: R96, puzzle: Same State NG 3)
Input ligand: FMN 200 uM
  apparent KD of MS2 coat protein: 1090 nM
[1]
  apparent KD of MS2 coat protein: 349 nM
Input ligand: none
  apparent KD of MS2 coat protein: 312 nM

## GUGGUGUAGAUACAGGAUAUGUUGCUCGUAACAUGAGGAUCACCCAUGUAUCUAUGAGAUUAAAUGCAGAAGGGUGCACACCACU [salish99_ss2_r3_086] (puzzle: Same State 2)
[2]
  apparent KD of MS2 coat protein: 15.7 nM
[3]
  apparent KD of MS2 coat protein: 148 nM
[4]
  apparent KD of MS2 coat protein: 325 nM

## GUGGUCAGACAUGAGGAUCACCCAUGUGGAAUAAAUAAGGACUAGGAUAUUUAAUAUAGGAUAUAAAAGAAGGAGUGGUUGGUG (Eterna round: R96, puzzle: Same State NG 3)
Input ligand: FMN 200 uM
  apparent KD of MS2 coat protein: 85.1 nM
[1]
  apparent KD of MS2 coat protein: 44.1 nM
Input ligand: none
  apparent KD of MS2 coat protein: 59.6 nM

## CAUCUCCCUUUUACAUGAGGAUCACCCAUGUUUUCAUAUUGAGAGGAUAUCGUAUUUGGAAACAUCGAGAAGGCUCAUUUGUAU [JR_SSNG3_Sub073] (Eterna round: R96, puzzle: Same State NG 3)
[1]
  apparent KD of MS2 coat protein: 345 nM

## UUUAUAGGCGCAGGAUAUGGUGAGGAUCACCCACUAGAAGGGUGCACAUGAGAAUCGGACAUGAGGAUCACCCAUGUCCGGCGC (Eterna round: R96, puzzle: Same State NG 1)
Input ligand: FMN 200 uM
  apparent KD of MS2 coat protein: 915 nM
[1]
  apparent KD of MS2 coat protein: 201 nM
Input ligand: none
  apparent KD of MS2 coat protein: 526 nM

## UCUUGGUUUUUGCUCGUUUUUUGUGUUGAACAUGAGGAUCACCCAUGUAUUGUACAGUCCAGUUUGAUAAUGGUCCG [JMF 56] (puzzle: Sensor for hsa-mir-208a)
[2]
  apparent KD of MS2 coat protein: 39 nM
[3]
  apparent KD of MS2 coat protein: 33.3 nM
[4]
  apparent KD of MS2 coat protein: 44.3 nM

## GAGGGCGAAAGCGACAUGAGGAUCACCCAUGUCCUCGGAGGGCAGGAUAUCCGGCAAAAGCCGAAGGAGAAGGGUCGAAAAGAA [AK SSNG3-V2-38.1] (Eterna round: R96, puzzle: Same State NG 3)
Input ligand: FMN 200 uM
  apparent KD of MS2 coat protein: 66.4 nM
[1]
  apparent KD of MS2 coat protein: 26 nM
Input ligand: none
  apparent KD of MS2 coat protein: 41.1 nM

## AACAAUCUAUCUUAGGAUAUCAUGAAAUAAACAUGAGGAUCACCCAUGUGCAGGAAAACUGCAUAUGAGAAGGCAGAUAGAUUGA [salish99_ss2_r3_026] (puzzle: Same State 2)
[2]
  apparent KD of MS2 coat protein: 593 nM
[3]
  apparent KD of MS2 coat protein: 36.2 nM
[4]
  apparent KD of MS2 coat protein: 42.2 nM

## GUAGCAUACCGAGGAUAUUCAUAUAAUAAAUACAUGAGGAUCACCCAUGUUAGGCGAAAGCCUUGGGAGAAGGCGGAAUGCUAC [Xeonanis - 20 Mod58] (Eterna round: R96, puzzle: Same State NG 2)
Input ligand: FMN 200 uM
  apparent KD of MS2 coat protein: 14.4 nM
[1]
  apparent KD of MS2 coat protein: 35.8 nM
Input ligand: none
  apparent KD of MS2 coat protein: 44.8 nM

## ACAUGAGACGGAGGAUAUCUUGUACCUACAUGUGACAUGAGGAUCACCCAUGUGGUAAGUAUGAUAGAGAAGGCCGAGAUAUGU [Equivalance 57 - Jieux - Same State NG 2] (Eterna round: R96, puzzle: Same State NG 2)
Input ligand: FMN 200 uM
  apparent KD of MS2 coat protein: 16.1 nM
[1]
  apparent KD of MS2 coat protein: 15 nM
Input ligand: none
  apparent KD of MS2 coat protein: 25.4 nM

## AUAAAACAUGAGGAUCACCCAUGUCAACAAAGUCGAGGAUAUGGGCAAAUAAAAUAAGAACCAGAAGGCGAAUUAU [salish99_ss1_r3_036] (puzzle: Same State 1)
[2]
  apparent KD of MS2 coat protein: 31.6 nM
[3]
  apparent KD of MS2 coat protein: 423 nM
[4]
  apparent KD of MS2 coat protein: 1140 nM

## GCGGAACCUGACAUGAGGAUCACCCAUGUUCCGGAAACGGCACAGGAUAUCUGUCCGAAAAGGUCAGAGAAGGGUGUAAACCGC [Fiskers NG3ss - 97] (Eterna round: R96, puzzle: Same State NG 3)
Input ligand: FMN 200 uM
  apparent KD of MS2 coat protein: 29 nM
[1]
  apparent KD of MS2 coat protein: 325 nM
Input ligand: none
  apparent KD of MS2 coat protein: 210 nM

## CCGAAAUAUGGAGGAUAUGGAGCCUUAUUGGCUCCAGAAGGUCAAAACAUGAGGAUCACCCAUGUAUCGGCGGUCAAUAGACCG [Eli NG1ss - 73] (Eterna round: R96, puzzle: Same State NG 1)
Input ligand: FMN 200 uM
  apparent KD of MS2 coat protein: 123 nM
[1]
  apparent KD of MS2 coat protein: 81.7 nM
Input ligand: none
  apparent KD of MS2 coat protein: 171 nM

## AGGAUGAGAACAGGAUAUUCGACAUGAGGAUCACCCAUGUGGCAAGUAGGUGACGAUGAAUGACGGAAGAAGGGUUACGAGGAG [Same State NG2] (Eterna round: R96, puzzle: Same State NG 2)
Input ligand: FMN 200 uM
  apparent KD of MS2 coat protein: 375 nM
[1]
  apparent KD of MS2 coat protein: 197 nM
Input ligand: none
  apparent KD of MS2 coat protein: 199 nM

## GUAGCAGGCACAGGAUAUGUUGACCAGGGAGUACAUGAGGAUCACCCAUGUCCGACACACCGGCAAUAGAAGGGUGAGUGGCAG [Eternabot solution 17] (Eterna round: R96, puzzle: Same State NG 2)
Input ligand: FMN 200 uM
  apparent KD of MS2 coat protein: 35.8 nM
[1]
  apparent KD of MS2 coat protein: 44.9 nM
Input ligand: none
  apparent KD of MS2 coat protein: 78.1 nM

Source: the supplement of paper PMC9170038
